# Data reported in IntAct's records for PubMed 21746902.
# B1: Epsin-3 (Saccharomyces cerevisiae), P47160 (parent)
# chain: MSLEDTLANMSLYDAKKYFRKAQNVVFNYTEMEGKVREATNNEPWGASSTLMDQISQGTYNFREREEILSMIFRRFTEKAGSEWRQIYKALQLLDYLIKHGSERFIDDTRNSINLIRILETFHYIDSQGRDQGINVRTRVKALIELLSDDNKIRAERKKARETAKKYKGVAGGSASADGSLNSKAGFTSTKVHGISVSADFDSDNEDNEDGSFSQNGYNDNASRATSTPGQGKQEPEDFVDFFSSESSKPSKELIQEDEKKADEEEDDDDEFSEFQSAVPVTNPANSFNLLNTSPIEGMPATTSSMPFYNSSTTDQGKITPAIAEPKKVDPFSSLFSTAKASAEAPSAPKASQAKAAASNPVSNSTTALSTDQDDDDEFGEMHGGAVQQEQNTNNNHTSSKEIDLLSF
# B2: t-SNARE VTI1 (Saccharomyces cerevisiae), Q04338 (parent)
# chain: MSSLLISYESDFKTTLEQAKASLAEAPSQPLSQRNTTLKHVEQQQDELFDLLDQMDVEVNNSIGDASERATYKAKLREWKKTIQSDIKRPLQSLVDSGDRDRLFGDLNASNIDDDQRQQLLSNHAILQKSGDRLKDASRIANETEGIGSQIMMDLRSQRETLENARQTLFQADSYVDKSIKTLKTMTRRLVANKFISYAIIAVLILLILLVLFSKFK
# partner: B1 chain
# Variants of: B1
# Settings: with vti1_yeast VTI1, Q04338
row,Variant,effect of a mutation on the interaction
1,MSLEDTLANMSLYDAKKYFRKAQNVVFNYTEMEGKVREATNNEPWGASSTLMDQISQGTYNFREREEILSMIFRRFTEKAGSEWRQIYKALQLLDYLIKHGSERFIDDTRNSINLIRILETFHYIDSQGRDQGINVRTRVKALIELLSDDNKIRAERKKAEETAKKYKGVAGGSASADGSLNSKAGFTSTKVHGISVSADFDSDNEDNEDGSFSQNGYNDNASRATSTPGQGKQEPEDFVDFFSSESSKPSKELIQEDEKKADEEEDDDDEFSEFQSAVPVTNPANSFNLLNTSPIEGMPATTSSMPFYNSSTTDQGKITPAIAEPKKVDPFSSLFSTAKASAEAPSAPKASQAKAAASNPVSNSTTALSTDQDDDDEFGEMHGGAVQQEQNTNNNHTSSKEIDLLSF [R161E],disrupting interaction strength
2,MSLEDTLANMSLYDAKKYFRKAQNVVFNYTEMEGKVREATNNEPWGASSTLMDQISQGTYNFREREEILSMIFRRFTEKAGSEWRQIYKALQLLDYLIKHGSERFIDDTRNSINLIRILETFHYIDSQGRDQGINVRTRVKALIELLSDDNKIRAEEKKARETAKKYKGVAGGSASADGSLNSKAGFTSTKVHGISVSADFDSDNEDNEDGSFSQNGYNDNASRATSTPGQGKQEPEDFVDFFSSESSKPSKELIQEDEKKADEEEDDDDEFSEFQSAVPVTNPANSFNLLNTSPIEGMPATTSSMPFYNSSTTDQGKITPAIAEPKKVDPFSSLFSTAKASAEAPSAPKASQAKAAASNPVSNSTTALSTDQDDDDEFGEMHGGAVQQEQNTNNNHTSSKEIDLLSF [R157E],disrupting interaction strength

# Variants of: B2
# Settings: with ent3_yeast ENT3, P47160
row,Variant,effect of a mutation on the interaction
1,MSSLLISYESDFKTTLEQAKASLAEAPSQPLSQRNTTLKHVRQQQDELFDLLDQMDVEVNNSIGDASERATYKAKLREWKKTIQSDIKRPLQSLVDSGDRDRLFGDLNASNIDDDQRQQLLSNHAILQKSGDRLKDASRIANETEGIGSQIMMDLRSQRETLENARQTLFQADSYVDKSIKTLKTMTRRLVANKFISYAIIAVLILLILLVLFSKFK [E42R],disrupting interaction strength
2,MSSLLISYESDFKTTLEQAKASLAEAPSQPLSQRNTTLKHVEQQQRELFDLLDQMDVEVNNSIGDASERATYKAKLREWKKTIQSDIKRPLQSLVDSGDRDRLFGDLNASNIDDDQRQQLLSNHAILQKSGDRLKDASRIANETEGIGSQIMMDLRSQRETLENARQTLFQADSYVDKSIKTLKTMTRRLVANKFISYAIIAVLILLILLVLFSKFK [D46R],disrupting interaction strength
3,MSSLLISYESDFKTTLEQAKASLAEAPSQPLSQRNTTLKHVEQQQDELFDLLDQMDVEVNNSIGDASERATYKAKLREWKKTIQSDIKRPLQSLVRSGDRDRLFGDLNASNIDDDQRQQLLSNHAILQKSGDRLKDASRIANETEGIGSQIMMDLRSQRETLENARQTLFQADSYVDKSIKTLKTMTRRLVANKFISYAIIAVLILLILLVLFSKFK [D96R],disrupting interaction strength
